Assay results from patent US20220363770A1 (Amgen, published 2022).
Where a chain is given by its changes, count along the chain named.

T1: human PAC1 receptor (human, UniProt P41586 24-468)
T1 sequence: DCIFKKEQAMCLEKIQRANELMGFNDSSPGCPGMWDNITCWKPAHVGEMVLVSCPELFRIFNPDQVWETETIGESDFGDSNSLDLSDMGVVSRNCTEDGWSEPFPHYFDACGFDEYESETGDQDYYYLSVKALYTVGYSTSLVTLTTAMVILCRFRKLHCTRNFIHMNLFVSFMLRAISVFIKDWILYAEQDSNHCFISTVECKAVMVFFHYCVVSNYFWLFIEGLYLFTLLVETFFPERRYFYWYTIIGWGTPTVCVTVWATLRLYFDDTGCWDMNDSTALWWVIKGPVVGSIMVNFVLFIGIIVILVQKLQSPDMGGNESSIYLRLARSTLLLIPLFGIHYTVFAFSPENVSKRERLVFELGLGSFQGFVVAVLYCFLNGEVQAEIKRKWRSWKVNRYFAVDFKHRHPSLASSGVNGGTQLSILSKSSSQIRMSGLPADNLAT

B1: iPS:454785 (bispecific antibody, human IgG1, kappa, lambda, N297G)
light 1: QSVLTQPPSVSAAPGQKVTISCSGSYSNIGRYSVSWYQQLPGTAPKLLIYDNNKRPSGIPDRFSGSKSGTSATLGITGLQTGDEADYYCGTWDSRLSAVVFGGGTKLTVLGQPKAAPSVTLFPPSSEELQANKATLVCLISDFYPGAVTVAWKADSSPVKAGVETTTPSKQSNNKYAAKSYLSLTPEQWKSHRSYSCQVTHEGSTVEKTVAPTECS
heavy 1: QVQLVESGGGVVQPGRSLRLSCAASGFTFSSFGMHWVRQAPGKGLEWVAVISFDGSIKYSVDSVKGRFTISRDNSKNTLFLQMNSLRAEDTAVYYCARDRLNYYESSGYYHYKYYGMAVWGQGTTVTVSSASTKGPSVFPLAPSSKSTSGGTAALGCLVKDYFPEPVTVSWNSGALTSGVHTFPAVLQSSGLYSLESVVTVPSSSLGTQTYICNVNHKPSNTKVDKKVEPKSCDKTHTCPPCPAPELLGGPSVFLFPPKPKDTLMISRTPEVTCVVVDVSHEDPEVKFNWYVDGVEVHNAKTKPCEEQYGSTYRCVSVLTVLHQDWLNGKEYKCKVSNKALPAPIEKTISKAKGQPREPQVYTLPPSRKKMTKNQVSLTCLVKGFYPSDIAVEWESNGQPENNYKTTPPVLKSDGSFFLYSKLTVDKSRWQQGNVFSCSVMHEALHNHYTQKSLSLSPGK
light 2: EIVLTQSPATLSLSPGERATLSCRASKSVGWSLHWYQQKPGQAPRLLIKYASQSLSGIPARFSGSGSGTDFTLTISSLEPEDFAVYYCHQSSRLPFTFGPGTKVDIKRTVAAPSVFIFPPSDEQLKSGTASVVCLLNNFYPREAKVQWKVDNALQSGNSQESVTEQDSKDSTYSLESTLTLSKADYEKHKVYACEVTHQGLSSPVTKSFNRGEC
heavy 2: not shown
B2: iPS:454799 (bispecific antibody, human IgG1, kappa, lambda, N297G)
light 1: B1 light 1 with Y26R, R31I, Y32K, S33A
heavy 1: B1 heavy 1
light 2: B1 light 2 with W31Q
heavy 2: not shown
B3: iPS:454817 (bispecific antibody, human IgG1, kappa, lambda, N297G)
light 1: B1 light 1 with Y26R, R31I, Y32K, S33A
heavy 1: B1 heavy 1
light 2: B1 light 2 with W31R
heavy 2: not shown
B4: iPS:454807 (bispecific antibody, human IgG1, kappa, lambda, N297G)
light 1: B1 light 1 with Y26R, R31I, Y32K, S33A
heavy 1: B1 heavy 1
light 2: B1 light 2 with W31Q
heavy 2: not shown
B5: iPS:454819 (bispecific antibody, human IgG1, kappa, lambda, N297G)
light 1: B1 light 1 with Y26R, R31I, Y32K, S33A
heavy 1: B1 heavy 1
light 2: B1 light 2 with W31R
heavy 2: not shown
B6: iPS:454801 (bispecific antibody, human IgG1, kappa, lambda, N297G)
light 1: B1 light 1 with Y26R, R31I, Y32K, S33A
heavy 1: B1 heavy 1
light 2: B1 light 2 with W31Q
heavy 2: not shown
B7: iPS:454821 (bispecific antibody, human IgG1, kappa, lambda, N297G)
light 1: B1 light 1 with Y26R, R31I, Y32K, S33A
heavy 1: B1 heavy 1
light 2: B1 light 2 with W31R
heavy 2: not shown
B8: iPS:454787 (bispecific antibody, human IgG1, kappa, lambda, N297G)
light 1: B1 light 1
heavy 1: B1 heavy 1
light 2: B1 light 2
heavy 2: not shown
B9: iPS:454797 (bispecific antibody, human IgG1, kappa, lambda, N297G)
light 1: B1 light 1 with Y26R, R31I, Y32K, S33A
heavy 1: B1 heavy 1
light 2: B1 light 2 with K27R, W31L, S32A, R93F
heavy 2: not shown
B10: iPS:454791 (bispecific antibody, human IgG1, kappa, lambda, N297G)
light 1: B1 light 1
heavy 1: B1 heavy 1
light 2: B1 light 2 with W31Y
heavy 2: not shown
B11: iPS:454811 (bispecific antibody, human IgG1, kappa, lambda, N297G)
light 1: B1 light 1 with Y26R, R31I, Y32K, S33A
heavy 1: B1 heavy 1
light 2: EIVLTQSPATLSLSPGERATLSCRASRAVSNLHWYQQKPGQAPRLLIKYASQSLSGIPARFSGSGSGTDFTLTISSLEPEDFAVYYCHQSSYLPFTFGPGTKVDIKRTVAAPSVFIFPPSDEQLKSGTASVVCLLNNFYPREAKVQWKVDNALQSGNSQESVTEQDSKDSTYSLESTLTLSKADYEKHKVYACEVTHQGLSSPVTKSFNRGEC
heavy 2: not shown
B12: iPS:454813 (bispecific antibody, human IgG1, kappa, lambda, N297G)
light 1: B1 light 1 with Y26R, R31I, Y32K, S33A
heavy 1: B1 heavy 1
light 2: B1 light 2 with W31R
heavy 2: not shown
B13: iPS:454789 (bispecific antibody, human IgG1, kappa, lambda, N297G)
light 1: B1 light 1
heavy 1: B1 heavy 1
light 2: B1 light 2
heavy 2: not shown
B14: iPS:454805 (bispecific antibody, human IgG1, kappa, lambda, N297G)
light 1: B1 light 1 with Y26R, R31I, Y32K, S33A
heavy 1: B1 heavy 1
light 2: B1 light 2 with W31Q
heavy 2: not shown
B15: iPS:454793 (bispecific antibody, human IgG1, kappa, lambda, N297G)
light 1: B1 light 1 with Y26R, R31I, Y32K, S33A
heavy 1: B1 heavy 1
light 2: B1 light 2 with W31Q
heavy 2: not shown
B16: iPS:454815 (bispecific antibody, human IgG1, kappa, lambda, N297G)
light 1: B1 light 1 with Y26R, R31I, Y32K, S33A
heavy 1: B1 heavy 1
light 2: B1 light 2 with W31R
heavy 2: not shown
B17: iPS:454803 (bispecific antibody, human IgG1, kappa, lambda, N297G)
light 1: B1 light 1 with Y26R, R31I, Y32K, S33A
heavy 1: B1 heavy 1
light 2: B1 light 2
heavy 2: not shown
B18: iPS:454809 (bispecific antibody, human IgG1, kappa, lambda, N297G)
light 1: B1 light 1 with Y26R, R31I, Y32K, S33A
heavy 1: B1 heavy 1
light 2: B1 light 2 with S28A, W31F, R93F
heavy 2: not shown
B19: iPS:454795 (bispecific antibody, human IgG1, kappa, lambda, N297G)
light 1: B1 light 1 with Y26R, R31I, Y32K, S33A
heavy 1: B1 heavy 1
light 2: B1 light 2 with S28A, G30W, W31H, S32N, R93M
heavy 2: not shown

Each binder was assayed against human CGRP receptor (human, UniProt Q16602 23-461; O60894 27-148) (assay: cell-based or functional assay).
Chain of human CGRP receptor (Q16602 23-461 limits assumed, chain 1 of 2): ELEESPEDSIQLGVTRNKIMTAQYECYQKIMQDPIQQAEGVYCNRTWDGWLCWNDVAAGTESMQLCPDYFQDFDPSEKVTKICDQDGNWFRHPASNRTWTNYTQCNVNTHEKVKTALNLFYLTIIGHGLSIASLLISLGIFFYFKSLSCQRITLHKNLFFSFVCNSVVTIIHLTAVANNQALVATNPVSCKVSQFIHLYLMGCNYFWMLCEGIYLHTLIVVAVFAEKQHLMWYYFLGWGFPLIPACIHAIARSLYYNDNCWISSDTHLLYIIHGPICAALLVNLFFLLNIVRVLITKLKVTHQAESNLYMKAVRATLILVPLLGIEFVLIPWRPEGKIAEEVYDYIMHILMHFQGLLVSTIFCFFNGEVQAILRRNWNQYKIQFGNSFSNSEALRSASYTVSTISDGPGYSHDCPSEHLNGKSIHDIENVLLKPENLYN
Chain of human CGRP receptor (O60894 27-148 limits assumed, chain 2 of 2): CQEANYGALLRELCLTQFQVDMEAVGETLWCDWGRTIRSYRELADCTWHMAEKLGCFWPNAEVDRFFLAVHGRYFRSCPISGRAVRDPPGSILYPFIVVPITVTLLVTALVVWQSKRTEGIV
B1 was tested, and the “Fold-improvement over 4E4 Ab” value was 1.1 fold and the “IC50” value was 0.47 nM. In the case of B2, the “Fold-improvement over 4E4 Ab” value is reported as 1.6 fold and the “IC50” value is reported as 0.32 nM. In the case of B3, the “Fold-improvement over 4E4 Ab” value is reported as 1.7 fold and the “IC50” value is reported as 0.33 nM. In the case of B4, the “Fold-improvement over 4E4 Ab” value is reported as 0.9 fold and the “IC50” value is reported as 0.56 nM. With B5 the “Fold-improvement over 4E4 Ab” value was 1.8 fold and the “IC50” value was 0.33 nM. B6 was tested, and the “Fold-improvement over 4E4 Ab” value was 1.2 fold and the “IC50” value was 0.44 nM. B7 was tested, and the “Fold-improvement over 4E4 Ab” value was 1.5 fold and the “IC50” value was 0.39 nM. In the case of B8, the “Fold-improvement over 4E4 Ab” value is reported as 1.8 fold and the “IC50” value is reported as 0.27 nM. For B9, the “Fold-improvement over 4E4 Ab” value was 2.6 fold and the “IC50” value was 0.2 nM. With B10 the “Fold-improvement over 4E4 Ab” value was 1.2 fold and the “IC50” value was 0.44 nM. In the case of B11, the “Fold-improvement over 4E4 Ab” value is reported as 1 fold and the “IC50” value is reported as 0.53 nM. With B12 the “Fold-improvement over 4E4 Ab” value was 0.8 fold and the “IC50” value was 0.61 nM. B13 was tested, and the “Fold-improvement over 4E4 Ab” value was 1.7 fold and the “IC50” value was 0.29 nM. With B14 the “Fold-improvement over 4E4 Ab” value was 1 fold and the “IC50” value was 0.52 nM. B15 was tested, and the “Fold-improvement over 4E4 Ab” value was 1.3 fold and the “IC50” value was 0.39 nM. With B16 the “Fold-improvement over 4E4 Ab” value was 1.6 fold and the “IC50” value was 0.37 nM. In the case of B17, the “Fold-improvement over 4E4 Ab” value is reported as 1.2 fold and the “IC50” value is reported as 0.44 nM. In the case of B18, the “Fold-improvement over 4E4 Ab” value is reported as 0.8 fold and the “IC50” value is reported as 0.64 nM. B19 was tested, and the “Fold-improvement over 4E4 Ab” value was 1.4 fold and the “IC50” value was 0.37 nM.

Each binder was assayed against T1, human PAC1 receptor (assay: cell-based or functional assay).
In the case of B1, the “Fold-improvement over 29G4v22 Ab” value is reported as 4.6 fold and the “IC50” value is reported as 1.43 nM. B2 was tested, and the “Fold-improvement over 29G4v22 Ab” value was 4.1 fold and the “IC50” value was 1.59 nM. With B3 the “Fold-improvement over 29G4v22 Ab” value was 10.7 fold and the “IC50” value was 0.62 nM. B4 was tested, and the “Fold-improvement over 29G4v22 Ab” value was 5.4 fold and the “IC50” value was 1.48 nM. With B5 the “Fold-improvement over 29G4v22 Ab” value was 9.6 fold and the “IC50” value was 0.69 nM. B6 was tested, and the “Fold-improvement over 29G4v22 Ab” value was 4.4 fold and the “IC50” value was 1.82 nM. With B7 the “Fold-improvement over 29G4v22 Ab” value was 9.2 fold and the “IC50” value was 0.72 nM. For B8, the “Fold-improvement over 29G4v22 Ab” value was 9.5 fold and the “IC50” value was 0.69 nM. In the case of B9, the “Fold-improvement over 29G4v22 Ab” value is reported as 5.4 fold and the “IC50” value is reported as 1.21 nM. For B10, the “Fold-improvement over 29G4v22 Ab” value was 7.1 fold and the “IC50” value was 0.79 nM. For B11, the “Fold-improvement over 29G4v22 Ab” value was 2.8 fold and the “IC50” value was 2.85 nM. B12 was tested, and the “Fold-improvement over 29G4v22 Ab” value was 9.9 fold and the “IC50” value was 0.81 nM. In the case of B13, the “Fold-improvement over 29G4v22 Ab” value is reported as 5.5 fold and the “IC50” value is reported as 1.19 nM. In the case of B14, the “Fold-improvement over 29G4v22 Ab” value is reported as 6.9 fold and the “IC50” value is reported as 1.16 nM. For B15, the “Fold-improvement over 29G4v22 Ab” value was 6 fold and the “IC50” value was 1.09 nM. For B16, the “Fold-improvement over 29G4v22 Ab” value was 10.1 fold and the “IC50” value was 0.65 nM. For B17, the “Fold-improvement over 29G4v22 Ab” value was 8.7 fold and the “IC50” value was 0.92 nM. In the case of B18, the “Fold-improvement over 29G4v22 Ab” value is reported as 4 fold and the “IC50” value is reported as 2.01 nM. For B19, the “Fold-improvement over 29G4v22 Ab” value was 2 fold and the “IC50” value was 3.26 nM.
